Values quoted from earlier work as cited in publication PMC4192513, “A Novel Protein-Protein Interaction in the RES (REtention and Splicing) Complex” (The Journal of Biological Chemistry, 2014).
Entries after “also recorded” stand apart in the source; their conditions may differ.

Test system: RES complex (Snu17p, Bud13p, Pml1p)
Settings: ref [4]
Description: Previous biochemical analyses have shown that Snu17p binds Bud13p directly ([4], [6]). Based on a mutational analysis of the invariant Bud13p Trp^232 residue ([6]), the interaction of Bud13p with the Snu17p RRM has been proposed to resemble a typical UHM-ULM interaction. […] The structural findings are consistent with our initial mutagenesis analysis, which was guided by the recognition features described for the UHM family.

B1: W232A: single W232A mutant of Bud13p, from ref [4] (protein, UniProt P46947 1-266, looked up, variant W232A)
Pre-mRNA-splicing factor CWC26: MALHQYLSETYGPTKPKNKTKKKKKESKSDANSDKTSLIVKERLSTLQQEQEKSGVASFSKFDKQKSKNIWKNLETNELSHAITHPSASSITGNESKNDLKEIRAQEPLVTVADKSKTRKTIYRDAQGHKIQEDSKIDDSSFSRSKYEDEKAAEREQYLKNLNMGDVQKLGINVDAHDKKKNQTASSLTIEDPAITFTHDKERTVKTSLLGRKLYDKPAPENRFAIMPGSRADGVHRSNGFEEKWFAKQNEINEKKVQSYTLQEDY
  interaction with Snu17p / complex formation of W232A mutant: did not abolish its interaction with Snu17p; also recorded: did not prevent complex formation
